This is an account of results in PMC10783091, “Higher affinities of fibers with cell receptors increase the infection capacity and virulence of human adenovirus type 7 and type 55 compared to type 3” (Microbiology Spectrum, 2023).

Data set [1] addresses recombinant human desmoglein 2 (DSG2) (human) (UniProt Q14126). The experiment in a line: SPR; DSG2 amine-coupled on a CM5 chip (3,500-3,700 RU), knobs as analytes; 25°C; HBS-EP (10 mM HEPES, 150 mM NaCl, 3 mM EDTA, 0.05% Tween 20, pH 7.4); association 180 s, dissociation 540 s, 30 µL/min; Biacore 8K. (Surface plasmon resonance follows binding to a sensor surface in real time, without labels.)

The target of data set [2] is Recombinant fiber knob of HAdV-55 (human adenovirus type 55). The experiment in a line: SDS-PAGE of unboiled (native) against boiled samples; purified knobs in loading buffer kept on ice (native) or heated at 98°C for 5 min (boiled); 12% SDS-PAGE.
Data set [3] deals with Recombinant fiber knob of HAdV-7 (human adenovirus type 7) (UniProt P15141). The description is as above.
Data set [4] concerns the molecule itself. The data set is described as above.
Data set [5] addresses T1, recombinant human desmoglein 2 (DSG2) (human, UniProt Q14126 50-609).
T1 construct: desmoglein 2, human, recombinant; No catalogue number, limits or tags are printed for the bought protein; The source is named for the SPR; the ELISA says only 'human DSG2'; also called human DSG2; receptor DSG2; source: bought: Creative Biomart
T1 sequence: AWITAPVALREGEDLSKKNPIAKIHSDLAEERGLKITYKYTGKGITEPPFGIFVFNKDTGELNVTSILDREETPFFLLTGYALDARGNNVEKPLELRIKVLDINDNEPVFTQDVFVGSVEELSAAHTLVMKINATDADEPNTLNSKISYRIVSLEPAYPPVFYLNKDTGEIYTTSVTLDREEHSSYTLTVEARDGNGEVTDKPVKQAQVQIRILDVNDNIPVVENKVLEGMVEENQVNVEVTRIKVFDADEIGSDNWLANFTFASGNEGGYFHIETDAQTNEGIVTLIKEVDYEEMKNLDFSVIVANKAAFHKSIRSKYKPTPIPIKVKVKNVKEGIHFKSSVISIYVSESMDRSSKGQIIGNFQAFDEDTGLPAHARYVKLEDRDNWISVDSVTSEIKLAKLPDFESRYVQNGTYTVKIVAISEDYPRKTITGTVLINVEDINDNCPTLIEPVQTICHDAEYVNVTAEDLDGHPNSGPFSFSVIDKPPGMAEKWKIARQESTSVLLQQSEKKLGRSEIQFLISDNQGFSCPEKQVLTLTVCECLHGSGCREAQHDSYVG
Description: SPR; DSG2 amine-coupled on a CM5 chip (3,500-3,700 RU), knobs as analytes; 25°C; HBS-EP (10 mM HEPES, 150 mM NaCl, 3 mM EDTA, 0.05% Tween 20, pH 7.4); association 180 s, dissociation 540 s, 30 µL/min; Biacore 8K. The note with it: both partners purified.

One may read the Kd as the equilibrium constant for the complex coming apart. What is called stoichiometry N is the number of molecules, sites or subunits per partner or assembly. Regarding “Recombinant fiber knob of HAdV-55 (domain or fragment)”, the Kd in data set [1] is 1.25 nM. For the same molecule, the stoichiometry N in data set [2] stood at 3.

“Recombinant fiber knob of HAdV-7 (from UniProt P15141 1-343) (domain or fragment)”: the Kd in data set [1] came to 2.21 nM. In addition, in data set [3], the stoichiometry N came to 3.

B1: Recombinant fiber knob of HAdV-5 (domain or fragment)
chain: GAITVGNKNNDKLTLWTTPAPSPNCRLNAEKDAKLTLVLTKCGSQILATVSVLAVKGSLAPISGTVQSAHLIIRFDENGVLLNNSFLDPEYWNFRNGDLTEGTAYTNAVGFMPNLSAYPKSHGKTAKSNIVSQVYLNGDKTKPVTLTITLNGTQETGDTTPSAYSMSFSWDWSGHNYINEIFATSSYTFSYIAQE
notes: fiber protein of human adenovirus type 5, fiber knob with the last shaft repeat; Negative control knob; also called Ad5K; Ad5k; not shown: His tag, N-terminal, kept
In the case of B1, the “stoichiometry N” value in data set [4] was 3.

B2: Recombinant fiber knob of HAdV-3 (domain or fragment)
chain: KLGNGLTFDSSNSIALKNNTLWTGPKPEANCIIEYGKQNPDSKLTLILVKNGGIVNGYVTLMGASDYVNTLFKNKNVSINVELYFDATGHILPDSSSLKTDLELKYKQTADFSARGFMPSTTAYPFVLPNAGTHNENYIFGQCYYKASDGALFPLEVTVMLNKRLPDSRTSYVMTFLWSLNAGLAPETTQATLITSPFTFSYIREDD
notes: fiber protein of human adenovirus type 3, fiber knob with the last shaft repeat; also called Ad3K; Ad3k; not shown: His tag, N-terminal, kept
As for B2, in data set [5], the Kd is 6.7 nM.
